Experimental data published in patent publication US11834472B2, “Anti-IL-22 antibodies, antibody fragments, their immunoconjugates and uses thereof” (BioAtla, Inc., priority 2018, dated 2023).

Experiments:
[1] = target: T1, human IL-22 (Homo sapiens, UniProt Q9GZX6); assay: SPR capture assay, affinity to human IL-22; type: binding; conditions: human IL-22, SPR
T1 sequence (Q9GZX6 34-179): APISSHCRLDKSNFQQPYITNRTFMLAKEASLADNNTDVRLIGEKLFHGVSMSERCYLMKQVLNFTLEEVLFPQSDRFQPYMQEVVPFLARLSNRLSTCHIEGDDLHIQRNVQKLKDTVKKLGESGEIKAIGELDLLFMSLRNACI
Protocol: The affinity of the 10 antibodies of Table 1 was measured by Surface Plasma Resonance (SPR) using a capture assay in PBS buffer to generate binding curves at four different concentrations of each antibody (0.05, 0.1, 0.5, and 1.0 μg/ml). The Ka, Kd and KD values for the mutant antibodies were calculated from the curves for each of the antibodies.
The affinity of the 10 antibodies of Table 1 was measured by Surface Plasma Resonance (SPR) using a capture assay on a SPR-2 instrument (SierraSensiors, Hamburg, Germany). The antigens hIL-22 and mIL-22 were immobilized on chips. The running buffer for the assay contained 10 mM HEPES with a pH of 7.4, 500 mM NaCl, and 0.05% TWEEN® 20. […] The off-rate was measured for 6 minutes. Binding constants were calculated using the curve fitting software Analyzer2 (Sierra Sensors). Sensorgrams were analyzed with the instrument specific software and with BIAevaluation 4.1 software. The binding data were analyzed using the Langmuir 1:1 model (human IL-22) or a model for a heterogeneous ligand ([…]).
The antibodies were tested at four different concentrations of each antibody: 0.33 nM, 0.67 nM, 3.3 nM, 6.7 nM for hIL-22; 1, 2, […] for mIL-22. Antibody CPE-LC-E049K was used as a control.

[2] = target: T2, mouse IL-22 (mIL-22) (Mus musculus, UniProt Q9JJY9); assay: Inhibition of mIL-22 induced Stat3 phosphorylation in HepG2 cells; type: cell-based; conditions: mAb 6.7 nM
T2 sequence (Q9JJY9 34-179): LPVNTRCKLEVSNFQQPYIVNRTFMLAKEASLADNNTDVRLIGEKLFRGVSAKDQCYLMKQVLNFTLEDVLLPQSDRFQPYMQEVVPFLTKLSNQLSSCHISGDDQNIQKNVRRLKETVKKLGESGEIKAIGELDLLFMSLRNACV
Protocol: One of the immediate functions of IL-22 is inducing phosphorylation of Stat3, a protein in the signaling pathway of IL-22. The 10 antibodies of Table 1 were tested in a cell-based assay for blocking IL-22-dependent phosphorylation of Stat3 through human or mouse IL-22 in HepG2 cells. Antibody hum10 and mutant CPE-LC-E049K were used as controls. Four concentrations of each of the antibodies were used: 0.11 μg/mL, 0.33 μg/mL, 1 μg/mL, and 3 μg/mL.
30,000 human HepG2 cells were seeded in 96 well plates and serum starved overnight. Three-fold dilutions of anti-IL-22 antibodies and control hum10 antibody at concentrations of 0.11 μg/mL, 0.33 μg/mL, 1 μg/mL, and 3 μg/mL were incubated with 200 ng/ml of hIL-22 or mIL-22 at 37° C. for one hour then added to the serum starved human HepG2 cells. The HepG2 cells were incubated with the antibody-IL-22 mixture at 37° C. for 20 minutes. After incubation, HepG2 cells were washed with PBS and lysed. Half of the cell lysate was used to determine the level of phosphorylated Stat3 using Cell Signaling kit #7300 following the vendor's protocol and the other half of the cell lysate was used to determine the level of total Stat3 by Western blot analysis using a Santa Cruz rabbit polyclonal antibody (Sc-7179) against human Stat3.

[3] = tested on: imiquimod (IMQ) induced psoriasis; type: in vivo
Excerpt: Two anti-IL-22 antibodies of the present invention, CPS02 and CPS09, were used for the treatment of imiquimod (IMQ) induced psoriasis in mice (FIG. 12). The mice were male BALB/c mice, which were an albino, laboratory-bred strain of the house mouse. A total of 70 mice, at a body weight of 18-20 g, were acclimated for 7 days before induction of psoriasis.
The 70 mice were randomized into 7 groups (10 mice in each group). One group (group 1) was used as a negative control to which no imiquimod was administered to the mice, which was instead replaced with Vaseline. […] The other 6 groups (groups 2-7) were dosed topically with imiquimod at a dosage of 82.5 mg/mouse (5% cream) once daily (qd) for 8 consecutive days from day 0 to day 7 (20 mg for the left ear, 62.5 mg for the shaved back) to induce psoriasis. The back skin was shaved to expose an area of 2×3 cm^2. For the Vaseline control group, the Vaseline was also applied at 82.5 mg/mouse once daily (qd) for 8 consecutive days (20 mg for left ear, 62.5 mg for the shaved back) from day 0 to day 7.
Group 2 was a group of psoriasis-induced mice that were untreated to serve as a control group. The treatment period completely overlapped with the imiquimod application period (day 0 to day 7). For group 2, the mice received both imiquimod and […] on each day of the 8-day period (day 0 to day 7). For the groups that received intravenous (I.V.) injection, the imiquimod was applied within one hour after the I.V. injection on days 0 and 3.
Group 3 was treated with the steroid dexamethasone, which is a current therapeutic treatment used for psoriasis. The dexamethasone was topically applied twice a day (BID) for 8 days. Group 4 was treated with phosphate-buffered saline (PBS), which served as a negative control. Group 5 was treated with an isotype control antibody that also served as a negative control. Groups 6-7 were treated with the anti-IL22 antibodies CPS02 (A) and CPS09 (B), respectively. The treatments for Groups 4-7 were administered by a single intravenous (I.V.) injection on each of days 0 and 3. 3 mice in group 6 died on day 0 and 2 died on day 1. On day 3, the I.V. injection dosage for this group was decreased to 10 mg/kg.
During the 8 day treatment period, the ear thickness was measured on days 0, 3, 5 and 7. The body weight and various skin scores were recorded daily. Pictures of the psoriasis sites were taken on days 0, 3, 5 and 7. On days 1 and 4, about 60 μl blood was collected via retro-orbital bleeding over 24 hours and placed in BD Microtainer® tubes coated with dipotassium ethylenediaminetetraacetic acid (K2EDTA). Plasma was then collected (to get at least 20 μl plasma) and stored at −80° C.
Skin scores for erythema, scales and thickness were measured daily according to an established grading system. The erythema, scales and thickness were scored independently on a scale of from 0 to 4: 0 means none, 1 means slight, 2 means moderate, 3 means marked, and 4 means very marked. The cumulative (total) skin score was also calculated.
The effects of the treatments were analyzed statistically using two-way analysis of variance (ANOVA, Bonferroni post-tests) or one-way ANOVA analysis. For comparisons between the treatment groups and the control group, the p value is denoted in FIGS. 13-18 as (*) if less than 0.05, (**) if less than 0.01, or (***) if less than 0.001.

[4] = group 6 (10 mice), 20 mg/kg I.V. on day 0

B1: CPS02: mutant anti-IL-22 antibody binding human and mouse IL-22; light chain LC-06, heavy chain HC-08 (antibody, V domains shown)
VH: QVQLVQSGAEVKKPGASVKVSCKASGYIFRSYWIHWIRQPPGKGLEWIGRIYPGTGRTYYNEKFKGRVTISADKSISTAYLQWSSLKASDTAMYYCARSYDSSVAYWGQGTLVTVSS
VL: AIQLTQSPSSLSASVGDRVTITCSASSSVSYMHWYLQKPGQSPQLLIYKTRKLASGVPSRFSGSGSGTDFTFTISSLEAEDAATYYCQQWSSNPYITFGQGTKVEIKR
In the case of B1, the ka [1] is reported as 1.87e+06 M·s, the kd [1] is reported as 4.67e-05 s⁻¹ and the “STAT3 Phosphorylation; mIL22 % inhibition” value [2] is reported as 76.18%. For the same molecule, the “reduction in body weight of the treated mice” value ([3]; IMQ psoriasis mice, days 0-7, in comparison to dexamethasone / PBS (FIG. 13)) was “less reduction in body weight”, the “mice died on day 0” value [3, 4] was 3 mice and the “mice died on day 1” value [3, 4] was 2 mice. For the same molecule, the ear skin thickness ([3]; vs negative controls (isotype matched antibody, PBS, vehicle) (FIG. 14)) was “less”, the skin erythema score ([3]; vs negative controls (isotype matched antibody, PBS, vehicle) (FIG. 15)) was “lower” and the skin scale score ([3]; vs negative controls (isotype matched antibody, PBS, vehicle) (FIG. 16)) was “lower”. For the same molecule, the skin thickness ([3]; vs negative controls (isotype matched antibody, PBS, vehicle) (FIG. 17)) was “lower” and the total skin score ([3]; vs negative controls (isotype matched antibody, PBS, vehicle) (FIG. 18)) was “lower”.
